In patent US5587462, “Brain-derived membrane-associated CRF binding proteins” (The Salk Institute For Biological Studies, dated 1996):

T1: human Corticotropin-Releasing Factor (hCRF) (human (same molecule in rat), UniProt P06850, 125I-radiolabeled in the binding, cross-linking and LIRMA assays; immobilized on a solid-phase matrix in the affinity chromatography)
T1 peptide: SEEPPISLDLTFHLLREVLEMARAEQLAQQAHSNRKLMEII

B1: 33 kD ovine brain-derived membrane-associated CRF-BP (other)
chain: ELEGEPLYRRALRCVDMLSLQGQFTFTADRRQLHCATFFIAEPEEFITIHYDLVSIDCLRGDILQVFDGWILKGEKFPSSQDHPLPTTERYVDFCDSGLSRRSIRSSQNVAMIFFRVHEPGNGFTITVKTEPNLFPCNIISQTPNGRFTLVMPHQHRNCSFSIIYPVAIKISDLTLGHLNGLQLKKSSAGCGGIGDFVELLGGTGLDPSKMLLLADLCYPLRGPAQMKVGCDHTVLRMVSSGKLLNRVTFEYRKLEPYELENPNGNSIQEFCLSTL
B2: 35 kD ovine brain-derived membrane-associated CRF-BP (other)
chain: EAVDHDSFPHLAGGASPKRELEGEPLYRRALRCVDMLSLQGQFTFTADRRQLHCATFFIAEPEEFITIHYDLVSIDCLRGDILQVFDGWILKGEKFPSSQDHPLPTTERYVDFCDSGLSRRSIRSSQNVAMIFFRVHEPGNGFTITVKTEPNLFPCNIISQTPNGRFTLVMPHQHRNCSFSIIYPVAIKISDLTLGHLNGLQLKKSSAGCGGIGDFVELLGGTGLDPSKMLLLADLCYPLRGPAQMKVGCDHTVLRMVSSGKLLNRVTFEYRKLEPYELENPNGNSIQEFCLSTL

Key:
[1] = target: 33 kD ovine brain-derived membrane-associated CRF-BP (sheep (ovine)); assay: competition of radiolabeled CRF binding by cold CRF
[2] = target: 35 kD ovine brain-derived membrane-associated CRF-BP (sheep (ovine)); assay: as above
[3] = target: T1, human Corticotropin-Releasing Factor …; assay: binding assay with purified membrane-associated CRF-BP

Row | Molecule | concentration of cold CRF that competes [1] [µM] | concentration of cold CRF that competes [2] [µM] | Kd [3] [nM]
1 | Corticotropin-Releasing Factor (CRF), species not stated at the experiment (peptide) | 1 | 1 | 
2 | B1 |  |  | 0.25
3 | B2 |  |  | 7.5
